# Source: PMC8597016
# Target: Biotinylated CD11b I domain (human)
# Experiment: BLI
row,Substance,Kd
1,CC30 LukAB (complex),214 nM
2,CC8 LukAB (complex),9.41 nM
